Values quoted from earlier work in patent US9522171B2 (priority 2010, dated 2016).

What was measured:
[1] = system: alternative, classical and lectin complement pathways; details: cited from earlier work
C5 [2] = target: T1, C5 (Mus musculus, UniProt P06684); details: mouse serum; cited from earlier work
T1 construct: from tissue; host or cells: mouse serum

C5 [3] = target: T2, C5 (Homo sapiens, UniProt P01031); details: human serum; cited from earlier work
T2 construct: from tissue; host or cells: human serum

C5 [4] = target: T3, C5 (Rattus norvegicus, UniProt P08650); details: rat serum; cited from earlier work
T3 construct: from tissue; host or cells: rat serum
T3 sequence (P08650 19-1681): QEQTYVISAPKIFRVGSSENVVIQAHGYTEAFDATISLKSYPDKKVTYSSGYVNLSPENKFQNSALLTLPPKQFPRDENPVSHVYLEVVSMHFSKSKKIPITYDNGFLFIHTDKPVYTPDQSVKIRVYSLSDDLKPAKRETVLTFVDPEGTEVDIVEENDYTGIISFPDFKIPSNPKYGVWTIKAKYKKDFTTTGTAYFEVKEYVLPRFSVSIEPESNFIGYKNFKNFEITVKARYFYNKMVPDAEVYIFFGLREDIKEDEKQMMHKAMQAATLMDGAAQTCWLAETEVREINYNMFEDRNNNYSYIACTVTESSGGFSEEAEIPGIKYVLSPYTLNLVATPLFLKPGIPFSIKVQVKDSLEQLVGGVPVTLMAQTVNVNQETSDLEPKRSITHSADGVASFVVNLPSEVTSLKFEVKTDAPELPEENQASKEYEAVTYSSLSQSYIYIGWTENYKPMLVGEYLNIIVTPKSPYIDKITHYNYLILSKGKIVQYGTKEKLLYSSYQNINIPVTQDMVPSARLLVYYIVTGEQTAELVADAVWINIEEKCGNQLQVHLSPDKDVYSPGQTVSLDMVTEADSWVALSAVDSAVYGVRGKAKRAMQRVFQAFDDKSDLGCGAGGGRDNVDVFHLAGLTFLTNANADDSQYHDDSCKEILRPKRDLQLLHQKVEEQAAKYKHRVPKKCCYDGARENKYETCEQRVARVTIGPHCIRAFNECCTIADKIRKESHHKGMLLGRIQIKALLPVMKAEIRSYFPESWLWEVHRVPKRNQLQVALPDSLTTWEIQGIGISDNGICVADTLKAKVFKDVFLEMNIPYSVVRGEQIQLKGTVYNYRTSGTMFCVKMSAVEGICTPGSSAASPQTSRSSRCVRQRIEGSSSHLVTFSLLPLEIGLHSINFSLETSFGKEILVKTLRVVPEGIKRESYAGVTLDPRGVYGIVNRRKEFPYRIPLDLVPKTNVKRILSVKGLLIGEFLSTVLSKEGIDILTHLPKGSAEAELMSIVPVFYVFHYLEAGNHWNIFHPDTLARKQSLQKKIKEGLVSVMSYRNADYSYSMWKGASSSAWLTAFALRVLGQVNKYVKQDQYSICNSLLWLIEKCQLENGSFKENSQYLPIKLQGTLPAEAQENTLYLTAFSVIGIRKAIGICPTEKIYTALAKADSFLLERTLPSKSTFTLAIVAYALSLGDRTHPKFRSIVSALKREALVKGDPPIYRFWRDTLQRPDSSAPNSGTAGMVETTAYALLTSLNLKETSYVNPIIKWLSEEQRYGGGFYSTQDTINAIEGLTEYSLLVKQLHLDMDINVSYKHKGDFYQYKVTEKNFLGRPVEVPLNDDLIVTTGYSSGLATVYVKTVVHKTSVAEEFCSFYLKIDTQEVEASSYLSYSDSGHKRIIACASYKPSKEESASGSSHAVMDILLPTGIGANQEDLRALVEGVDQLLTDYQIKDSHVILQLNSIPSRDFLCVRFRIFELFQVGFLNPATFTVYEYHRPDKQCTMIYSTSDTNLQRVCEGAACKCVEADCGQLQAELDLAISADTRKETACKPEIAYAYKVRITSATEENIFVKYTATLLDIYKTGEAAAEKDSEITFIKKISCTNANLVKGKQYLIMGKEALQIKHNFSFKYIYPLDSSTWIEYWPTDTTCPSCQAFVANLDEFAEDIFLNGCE

T1 sequence (P06684 19-1680): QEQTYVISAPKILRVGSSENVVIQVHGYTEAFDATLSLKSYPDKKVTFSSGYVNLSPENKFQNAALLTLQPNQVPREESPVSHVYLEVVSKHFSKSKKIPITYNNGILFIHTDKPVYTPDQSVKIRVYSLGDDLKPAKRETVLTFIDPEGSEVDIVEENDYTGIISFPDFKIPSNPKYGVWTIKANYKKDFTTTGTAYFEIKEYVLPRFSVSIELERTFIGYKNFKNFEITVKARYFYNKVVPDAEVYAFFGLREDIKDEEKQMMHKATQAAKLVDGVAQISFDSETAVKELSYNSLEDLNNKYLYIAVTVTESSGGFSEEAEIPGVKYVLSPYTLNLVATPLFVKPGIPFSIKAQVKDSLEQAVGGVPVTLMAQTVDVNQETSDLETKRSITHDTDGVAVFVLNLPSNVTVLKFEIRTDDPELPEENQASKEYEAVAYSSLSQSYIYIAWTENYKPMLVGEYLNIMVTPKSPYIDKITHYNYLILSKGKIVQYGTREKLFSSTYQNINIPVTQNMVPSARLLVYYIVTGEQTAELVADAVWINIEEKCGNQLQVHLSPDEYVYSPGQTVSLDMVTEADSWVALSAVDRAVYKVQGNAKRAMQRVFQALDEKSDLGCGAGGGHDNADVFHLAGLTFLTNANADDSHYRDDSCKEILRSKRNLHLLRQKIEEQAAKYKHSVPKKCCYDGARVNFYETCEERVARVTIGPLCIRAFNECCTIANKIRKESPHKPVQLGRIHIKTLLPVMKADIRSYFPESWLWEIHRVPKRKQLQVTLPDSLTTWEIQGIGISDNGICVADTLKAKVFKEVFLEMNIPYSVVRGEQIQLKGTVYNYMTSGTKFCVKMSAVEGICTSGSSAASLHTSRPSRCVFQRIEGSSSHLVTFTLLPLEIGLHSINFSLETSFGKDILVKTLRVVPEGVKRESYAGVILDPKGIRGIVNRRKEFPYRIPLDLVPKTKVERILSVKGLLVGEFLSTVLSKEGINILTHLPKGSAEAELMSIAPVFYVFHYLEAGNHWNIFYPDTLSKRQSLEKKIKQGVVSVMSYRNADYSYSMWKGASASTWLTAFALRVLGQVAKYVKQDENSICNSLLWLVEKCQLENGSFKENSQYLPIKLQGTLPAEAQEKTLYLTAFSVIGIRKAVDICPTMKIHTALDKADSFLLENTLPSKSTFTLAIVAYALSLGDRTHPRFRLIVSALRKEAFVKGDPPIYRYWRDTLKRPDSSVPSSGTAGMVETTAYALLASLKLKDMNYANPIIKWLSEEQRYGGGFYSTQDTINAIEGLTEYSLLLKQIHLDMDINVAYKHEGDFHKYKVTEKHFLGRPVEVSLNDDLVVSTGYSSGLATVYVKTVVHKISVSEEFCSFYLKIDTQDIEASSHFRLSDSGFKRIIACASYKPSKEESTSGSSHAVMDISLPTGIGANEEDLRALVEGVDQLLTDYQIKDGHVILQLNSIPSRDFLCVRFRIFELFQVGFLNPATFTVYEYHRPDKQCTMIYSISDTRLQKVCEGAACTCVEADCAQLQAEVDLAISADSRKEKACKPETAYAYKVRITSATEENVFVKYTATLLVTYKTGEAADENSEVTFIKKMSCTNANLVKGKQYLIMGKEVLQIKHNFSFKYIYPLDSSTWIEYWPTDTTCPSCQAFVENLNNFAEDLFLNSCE
T2 sequence (P01031 19-1676): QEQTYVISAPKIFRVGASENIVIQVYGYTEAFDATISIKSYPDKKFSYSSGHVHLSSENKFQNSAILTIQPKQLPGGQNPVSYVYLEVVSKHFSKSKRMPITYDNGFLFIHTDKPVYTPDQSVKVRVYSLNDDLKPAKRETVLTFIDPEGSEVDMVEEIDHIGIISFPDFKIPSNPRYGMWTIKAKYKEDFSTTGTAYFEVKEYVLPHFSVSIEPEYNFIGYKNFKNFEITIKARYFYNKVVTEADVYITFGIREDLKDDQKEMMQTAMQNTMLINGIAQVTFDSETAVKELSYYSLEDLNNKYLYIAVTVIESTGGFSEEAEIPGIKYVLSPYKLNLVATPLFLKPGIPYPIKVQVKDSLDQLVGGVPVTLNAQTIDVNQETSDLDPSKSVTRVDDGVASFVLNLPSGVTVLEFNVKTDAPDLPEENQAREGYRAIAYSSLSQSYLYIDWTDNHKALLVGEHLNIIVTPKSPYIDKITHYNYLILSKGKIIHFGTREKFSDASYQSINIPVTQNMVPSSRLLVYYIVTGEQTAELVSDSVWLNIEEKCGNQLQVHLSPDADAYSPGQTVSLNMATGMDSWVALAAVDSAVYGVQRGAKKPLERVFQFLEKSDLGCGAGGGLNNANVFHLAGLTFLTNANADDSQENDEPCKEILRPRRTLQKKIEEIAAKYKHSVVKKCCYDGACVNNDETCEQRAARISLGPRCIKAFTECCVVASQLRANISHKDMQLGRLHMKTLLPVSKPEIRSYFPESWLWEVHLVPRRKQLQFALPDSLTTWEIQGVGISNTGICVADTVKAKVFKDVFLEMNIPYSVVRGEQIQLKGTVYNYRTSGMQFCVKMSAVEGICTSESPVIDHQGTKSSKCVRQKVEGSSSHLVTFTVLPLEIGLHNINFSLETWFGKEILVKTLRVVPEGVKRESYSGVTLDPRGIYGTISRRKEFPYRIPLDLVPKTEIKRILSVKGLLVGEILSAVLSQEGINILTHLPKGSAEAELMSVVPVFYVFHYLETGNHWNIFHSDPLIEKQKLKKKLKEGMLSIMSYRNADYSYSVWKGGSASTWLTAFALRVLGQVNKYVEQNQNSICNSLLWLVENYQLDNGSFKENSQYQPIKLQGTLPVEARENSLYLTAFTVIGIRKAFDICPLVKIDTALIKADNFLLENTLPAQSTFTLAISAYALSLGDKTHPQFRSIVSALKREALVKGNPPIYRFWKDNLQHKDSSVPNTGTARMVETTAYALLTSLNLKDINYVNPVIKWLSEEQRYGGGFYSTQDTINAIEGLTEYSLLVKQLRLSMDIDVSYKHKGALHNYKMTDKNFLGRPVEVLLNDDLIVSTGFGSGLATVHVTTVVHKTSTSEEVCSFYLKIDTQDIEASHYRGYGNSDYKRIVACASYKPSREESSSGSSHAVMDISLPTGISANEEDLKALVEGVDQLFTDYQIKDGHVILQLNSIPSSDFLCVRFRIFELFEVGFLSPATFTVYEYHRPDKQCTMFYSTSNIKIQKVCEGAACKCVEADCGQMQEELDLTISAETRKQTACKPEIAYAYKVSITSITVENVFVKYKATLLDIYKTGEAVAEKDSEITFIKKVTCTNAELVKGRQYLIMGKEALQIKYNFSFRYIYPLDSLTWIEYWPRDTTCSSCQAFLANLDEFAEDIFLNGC

EV576: Lipocalin protein from salivary glands of the tick Ornithodoros moubata, sequence of FIG. 2; binds complement C5 and LTB4
inhibition of the complement system [1]: inhibits the alternative, classical and lectin complement pathways
IC50 for binding C5 and preventing its cleavage by C5 convertase (C5 [2]): approximately 0.02 mg/ml
IC50 for binding C5 and preventing its cleavage by C5 convertase (C5 [3]): approximately 0.02 mg/ml
IC50 for binding C5 and preventing its cleavage by C5 convertase (C5 [4]): approximately 0.02 mg/ml
